In US10704056B2, “Constitutively active ABA receptor mutants” (The Regents of the University of California, priority 2011, dated 2020):
Changes are numbered by the printed parent chain. Names and notes keep the numbering of the source.

B1: PYL6: wild-type ABA receptor PYL6 (SEQ ID NO:7) (protein, listed as Arabidopsis thaliana)
chain: MPTSIQFQRSSTAAEAANATVRNYPHHHQKQVQKVSLTRGMADVPEHVELSHTHVVGPSQCFSVVVQDVEAPVSTVWSILSRFEHPQAYKHFVKSCHVVIGDGREVGSVREVRVVSGLPAAFSLERLEIMDDDRHVISFSVVGGDHRLMNYKSVTTVHESEEDSDGKKRTRVVESYVVDVPAGNDKEETCSFADTIVRCNLQSLAKLAENTSKFS
modifications: thale cress PYR/PYL receptor, abscisic acid receptor PYL6, PYR1-like protein 6 (PYL6), ABI1-binding protein 5 (ABIP5), regulatory components of ABA receptor 9 (RCAR9), Bet v I allergen family protein, At2g40330, T7M7.15
B2: PYL9^CA4C: PYL9 mutant (A91W, Y160I, F161V) (protein)
chain: HHHHHHMMDGVEGGTAMYGGLETVQYVRTHHQHLCRENQCTSALVKHIKAPLHLVWSLVRRFDQPQKYKPFVSRCTVIGDPEIGSLREVNVKSGLPWTTSTERLELLDDEEHILGIKIIGGDHRLKNYSSILTVHPEIIEGRAGTMVIESFVVDVPQGNTKDETCIVVEALIRCNLKSLADVSERLASQDITQ
B3: PYL2^CA4C: PYL2 mutant (H65P, A93W, M1641, F165V) (protein)
chain: HHHHHHMSSSPAVKGLTDEEQKTLEPVIKTYHQFEPDPTTCTSLITQRIHAPASVVWPLIRRFDNPERYKPFVKRCRLISGDGDVGSVREVTVISGLPWSTSTERLEFVDDDHRVLSFRVVGGEHRLKNYKSVTSVNEFLNQDSGKVYTVVLESYTVDIPEGNTEEDTKIVVDTVVKLNLQKLGVAATSAPMHDDE
B4: K170W: PYR1 receptor mutant with amino acid substitution K170W (protein)
chain: MPSELTPEERSELKNSIAEFHTYQLDPGSCSSLHAQRIHAPPELVWSIVRRFDKPQTYKHFIKSCSVEQNFEMRVGCTRDVIVISGLPANTSTERLDILDDERRVTGFSIIGGEHRLTNYKSVTTVHRFEKENRIWTVVLESYVVDMPEGNSEDDTRMFADTVVKLNLQWLATVAEAMARNSGDGSGSQVT
modifications: synthetic mutated PYR/PYL receptor polypeptide PYR1 K170W
B5: I84Q: PYR1 receptor mutant with amino acid substitution I84Q (protein)
chain: B4 chain with I84Q, W170K
modifications: synthetic mutated PYR/PYL receptor polypeptide PYR1 I84Q
B6: H60P: PYR1 (SEQ ID NO:1) receptor mutant with amino acid substitution H60P (protein, listed as Arabidopsis thaliana)
chain: B4 chain with H60P, W170K
modifications: thale cress PYR/PYL receptor, Pyrabactin resistance 1, abscisic acid receptor PYR1 (PYR1), ABI1-binding protein 6 (ABIP6), regulatory components of ABA receptor 11 (RCAR11), At4g17870, T6K21.50
B7: M158I: PYR1 receptor mutant with amino acid substitution M158I (protein)
chain: B4 chain with M158I, W170K
modifications: synthetic mutated PYR/PYL receptor polypeptide PYR1 M158I
B8: V83F: PYR1 receptor mutant with amino acid substitution V83F (protein)
chain: B4 chain with V83F, W170K
modifications: synthetic mutated PYR/PYL receptor polypeptide PYR1 V83F
B9: F159V: PYR1 receptor mutant with amino acid substitution F159V (protein)
chain: B4 chain with F159V, W170K
modifications: synthetic mutated PYR/PYL receptor polypeptide PYR1 F159V
B10: A89W: PYR1 receptor mutant with amino acid substitution A89W (protein)
chain: B4 chain with A89W, W170K
modifications: synthetic mutated PYR/PYL receptor polypeptide PYR1 A89W
B11: PYR1^CA4B: PYR1 quadruple mutant (V83F, M158I, F159V, K170W) (protein)
chain: HHHHHHMPSELTPEERSELKNSIAEFHTYQLDPGSCSSLHAQRIHAPPELVWSIVRRFDKPQTYKHFIKSCSVEQNFEMRVGCTRDVIFISGLPANTSTERLDILDDERRVTGFSIIGGEHRLTNYKSVTTVHRFEKENRIWTVVLESYVVDMPEGNSEDDTRIVADTVVKLNLQWLATVAEAMARNSGDGSGSQVT
B12: PYR1^CAc: PYR1 quadruple mutant (H60P, A89W, M158I, F159V) (protein)
chain: B11 chain with H66P, F89V, A95W, W176K
B13: PYL10: wild-type ABA receptor PYL10 (SEQ ID NO:11) (protein, listed as Arabidopsis thaliana)
chain: MNGDETKKVESEYIKKHHRHELVESQCSSTLVKHIKAPLHLVWSIVRRFDEPQKYKPFISRCVVQGKKLEVGSVREVDLKSGLPATKSTEVLEILDDNEHILGIRIVGGDHRLKNYSSTISLHSETIDGKTGTLAIESFVVDVPEGNTKEETCFFVEALIQCNLNSLADVTERLQAESMEKKI
modifications: thale cress PYR/PYL receptor, abscisic acid receptor PYL10, PYR1-like protein 10 (PYL10), ABI1-binding protein 8 (ABIP8), regulatory components of ABA receptor 4 (RCAR4), At4g27920, T13J8.30

Each molecule was assayed on HAB1 (assay: In vitro PP2C phosphatase (pNPP) receptor activation assay with HAB1). Settings: 600 nM GST-HAB1, 0-4800 nM receptor, no ABA.
Assay type: biochemical, Arabidopsis
Protocol: Recombinant receptor proteins were produced as follows: Coding sequences were cloned into pET28 yielding 6×HIS (SEQ ID NO:173) fusions proteins and transformed into E. coli expression strain BL21. […]. Cells were stored at −80° C. before purification. After thawing, cells were sonicated on ice five times for 30 sec with 30 sec resting intervals. A cleared lysate was obtained after centrifugation at 12,000×g for 10 min and applied to 1 ml of Ni-NTA column (Qiagen) and washed with 20 column volumes of Buffer A containing 30 mM imidazole. Bound protein was eluted with 10 ml of Buffer A with 250 mM imidazole. The elutate was dialyzed against TBS. The purified recombinant proteins were then used together with recombinant phosphatases in receptor assays. In these assays, receptor activity is indicated by inhibition of phosphatase activity, as inferred from initial reaction velocities for GST-HAB1 mediated hydrolysis of the synthetic phosphatase substrate pNPP. Reactions contained 600 nM GST-HAB1 and either 0, 600, 1200, 2400 or 4800 nM 6×His-PYR1 or variants in a reaction buffer consisting of 33 mM Tris-OAc, pH 7.9, 66 mM KOAc, 0.1% BSA, 25 mM Mn(OAc)2, 50 mM pNPP. To infer the level of receptor activation with respect to fully activated wild type receptor, control reactions were also conducted using saturating levels of (+)-ABA (10 μM), and 600 nM wild type PYR1 and HAB1. Immediately after mixing proteins and substrates, reactions were monitored for hydrolysis of pNPP at A405 at ˜10 second intervals over 20 minutes using a Wallac plate reader. Reaction progressions were plotted, initial velocities calculated and converted to specific activities using a standard curve for 4-nitrophenol made in the same buffer system volumes/plate reader used for enzymatic reaction measurements. The values shown are expressed as %-control phosphatase activity levels as measured in the absence of receptor protein. The average specific activity level of GST-HAB1 utilized in our experiments was 4000 μmol/min/mg, when assayed on the phosphatase substrate pNPP in the absence of PYR1 or other receptors, as described using the methods above.
Full length ABI1 and ABI2 were cloned into a modified pSUMO vector (LifeSensors Inc, USA) vector yielding 6×His-SUMO fusion proteins; GST-HAB1 was expressed and purified as previously described (Park et al., 2009). Mutant receptors were cloned into pET28 yielding 6×His-fusion proteins. […]. The cultures were pre-incubated 2 hours at 30° C. and, for PP2C expression, media was supplemented with 4 mM MnCl2 one hour after inoculation. After pre-incubation, IPTG was added (1 mM) and cells were induced at 15° C. for 16 hours, after which they were collected by centrifugation, resuspended in 5 ml Buffer A (50 mM NaH2PO4, 300 mM NaCl) +10 mM imidazole, pH 8.0 and stored at −80° C. For purification, cells were thawed, sonicated on ice (60 seconds) and a cleared lysate was then applied a 1 ml-bed volume column of Ni-NTA (Qiagen, USA), washed with 20 column volumes of Buffer A+30 mM imidazole and bound protein eluted with 1 ml of Buffer A+250 mM imidazole. For receptors, the elutate was dialyzed against TBS and for PP2Cs, fusion proteins were desalted by passage over a Sephadex G50 column.
The purified receptors and phosphatases were then used in receptor assays where receptor activation is indicated by inhibition of phosphatase activity, as inferred from initial reaction velocities for PP2C-mediated hydrolysis of the synthetic phosphatase substrate pNPP in reactions containing 600 nM PP2C and either 0, 600, 1200, 2400 or 4800 nM receptor. The receptor assay buffer consisted of 33 mM Tris-OAc, pH 7.9, 66 mM KOAc, 0.1% BSA, 25 mM Mn(OAc)2, 0.1%13-ME and 50 mM pNPP. Immediately after mixing proteins and substrates, reactions were monitored for hydrolysis of pNPP at A405 at ˜2 minutes intervals using a Wallac plate reader. […]

| Molecule | basal receptor activity (inhibition of HAB1 phosphatase activity in the absence of ABA) |
| --- | --- |
| B1 | are not full CA receptors |
| B2 | highly activated in the absence of ABA |
| B3 | highly activated in the absence of ABA |
| B4 | increase basal activity of receptors |
| B5 | increase basal activity of receptors |
| B6 | increase basal activity of receptors |
| B7 | increase basal activity of receptors |
| B8 | increase basal activity of receptors |
| B9 | increase basal activity of receptors |
| B10 | increase basal activity of receptors |
| B11 | dramatically increased basal PYR1 activity |
| B12 | dramatically increased basal PYR1 activity |
| B13 | are not full CA receptors |
